Results as given in US20140044713A1 (KONINKLIJKE NEDERLANDSE AKADEMIE VAN WETENSCHAPPEN, published 2014).

How the values were obtained:
[1] = target: T1, tagged Frizzled5 (Frz5) (UniProt Q13467 27-585, limits assumed); experiment: Rspo1-Fc pull-down (proteinG beads) from transfected HEK293T cells, FLAG western blot
T1 construct: whole, on cells; also called double-tagged Frizzled5; Frz5 bait; not shown: FLAG/HA tag

[2] = target: T2, Lgr5 ΔN (deletion of the extreme N-terminus of Lgr5, amino acids 28-50) (UniProt O75473 22-907); experiment: right panels: incubation with Rspo1 after cell lysis, FLAG immunoprecipitation, anti-hIgG-Fc Western blot
T2 construct: whole, on cells; Deletion construct
T2 sequence (looked up): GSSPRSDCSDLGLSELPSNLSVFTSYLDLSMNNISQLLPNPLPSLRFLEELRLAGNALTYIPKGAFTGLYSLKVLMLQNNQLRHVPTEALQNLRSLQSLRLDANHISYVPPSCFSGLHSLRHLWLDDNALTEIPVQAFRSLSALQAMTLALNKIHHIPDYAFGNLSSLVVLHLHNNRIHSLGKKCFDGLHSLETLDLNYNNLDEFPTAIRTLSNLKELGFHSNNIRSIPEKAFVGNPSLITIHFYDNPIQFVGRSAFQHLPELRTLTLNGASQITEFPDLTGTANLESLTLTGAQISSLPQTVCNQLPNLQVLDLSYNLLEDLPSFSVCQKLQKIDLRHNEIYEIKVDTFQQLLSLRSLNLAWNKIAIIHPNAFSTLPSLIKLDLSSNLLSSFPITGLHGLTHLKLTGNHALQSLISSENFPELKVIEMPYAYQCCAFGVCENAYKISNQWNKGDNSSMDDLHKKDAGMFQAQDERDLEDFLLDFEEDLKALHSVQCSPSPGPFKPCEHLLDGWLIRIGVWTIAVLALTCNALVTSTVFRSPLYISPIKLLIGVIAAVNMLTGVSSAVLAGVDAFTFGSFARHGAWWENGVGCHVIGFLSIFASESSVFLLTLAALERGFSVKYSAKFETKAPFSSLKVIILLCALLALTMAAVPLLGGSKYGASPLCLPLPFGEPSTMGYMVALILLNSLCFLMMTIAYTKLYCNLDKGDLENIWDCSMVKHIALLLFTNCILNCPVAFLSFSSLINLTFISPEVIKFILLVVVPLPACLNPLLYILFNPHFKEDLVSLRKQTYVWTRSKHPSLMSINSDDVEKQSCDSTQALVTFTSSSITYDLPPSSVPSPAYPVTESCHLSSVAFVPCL

[3] = target: T3, Lgr5 ΔLRR1-17 (deletion of N-terminus and entire LRR region) (UniProt O75473 22-907); experiment: as above
T3 construct: whole, on cells; Deletion construct
T3 sequence (looked up): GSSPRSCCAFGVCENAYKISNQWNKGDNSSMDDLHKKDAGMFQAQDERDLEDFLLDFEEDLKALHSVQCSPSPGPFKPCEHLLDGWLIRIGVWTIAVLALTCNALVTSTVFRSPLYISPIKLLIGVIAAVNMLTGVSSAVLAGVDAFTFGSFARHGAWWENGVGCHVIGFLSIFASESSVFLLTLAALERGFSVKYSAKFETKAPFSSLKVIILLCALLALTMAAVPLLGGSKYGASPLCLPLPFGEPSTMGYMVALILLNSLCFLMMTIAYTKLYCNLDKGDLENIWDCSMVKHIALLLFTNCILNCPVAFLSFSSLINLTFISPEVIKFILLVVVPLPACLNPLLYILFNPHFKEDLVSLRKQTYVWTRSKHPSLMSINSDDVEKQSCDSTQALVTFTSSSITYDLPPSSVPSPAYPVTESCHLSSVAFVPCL

[4] = target: T4, control Lgr7 (Homo sapiens (Human), UniProt Q9HBX9 1-757); experiment: HEK293T cells transfected with the tagged Lgr, incubated with Rspo1-Fc, protein G immunoprecipitation, anti-FLAG Western blot
T4 construct: not shown: the sister constructs are FH-tagged
T4 sequence: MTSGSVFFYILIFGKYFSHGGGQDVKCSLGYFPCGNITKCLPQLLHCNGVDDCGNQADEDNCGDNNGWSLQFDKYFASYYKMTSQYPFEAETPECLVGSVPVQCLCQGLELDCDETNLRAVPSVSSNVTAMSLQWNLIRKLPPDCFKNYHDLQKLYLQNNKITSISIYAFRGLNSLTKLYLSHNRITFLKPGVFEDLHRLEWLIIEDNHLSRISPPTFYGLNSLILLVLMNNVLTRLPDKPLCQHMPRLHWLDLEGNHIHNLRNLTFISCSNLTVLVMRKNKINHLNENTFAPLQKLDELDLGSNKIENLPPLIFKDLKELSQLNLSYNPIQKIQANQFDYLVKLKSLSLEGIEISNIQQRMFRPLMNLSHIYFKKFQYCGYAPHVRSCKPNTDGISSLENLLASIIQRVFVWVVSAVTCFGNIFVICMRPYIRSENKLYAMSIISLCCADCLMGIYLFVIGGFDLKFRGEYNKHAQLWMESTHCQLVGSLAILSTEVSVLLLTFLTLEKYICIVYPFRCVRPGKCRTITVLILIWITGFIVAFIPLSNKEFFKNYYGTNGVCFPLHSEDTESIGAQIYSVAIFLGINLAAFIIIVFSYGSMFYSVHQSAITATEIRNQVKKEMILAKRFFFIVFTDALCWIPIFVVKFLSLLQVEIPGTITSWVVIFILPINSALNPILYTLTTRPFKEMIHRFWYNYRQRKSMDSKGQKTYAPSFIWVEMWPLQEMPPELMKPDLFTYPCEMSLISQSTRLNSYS
Excerpt: FIG. 7A: Rspondin1 binds to Lgr4, Lgr5 and Lgr6. […] Bottom: Input of tagged proteins.

[5] = target: T5, LGR5-478 (exo domain of LGR5 without the CRL region) (UniProt O75473 22-478); experiment: gel filtration of purified proteins
T5 construct: domain: exo domain of LGR5 without the CRL region; Purified protein
T5 sequence (looked up): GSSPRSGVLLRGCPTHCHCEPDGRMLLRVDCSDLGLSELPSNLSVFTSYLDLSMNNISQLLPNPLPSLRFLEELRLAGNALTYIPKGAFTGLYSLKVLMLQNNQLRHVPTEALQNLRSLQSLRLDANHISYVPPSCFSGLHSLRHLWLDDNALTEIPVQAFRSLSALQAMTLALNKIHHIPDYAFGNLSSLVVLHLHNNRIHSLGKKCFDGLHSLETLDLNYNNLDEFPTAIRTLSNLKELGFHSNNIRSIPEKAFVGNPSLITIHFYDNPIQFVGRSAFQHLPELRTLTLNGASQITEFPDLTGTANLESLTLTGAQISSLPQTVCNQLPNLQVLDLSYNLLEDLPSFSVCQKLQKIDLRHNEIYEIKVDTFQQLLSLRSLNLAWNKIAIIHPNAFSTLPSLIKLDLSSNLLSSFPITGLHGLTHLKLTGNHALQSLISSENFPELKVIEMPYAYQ

T1 sequence (Q13467 27-585 limits assumed): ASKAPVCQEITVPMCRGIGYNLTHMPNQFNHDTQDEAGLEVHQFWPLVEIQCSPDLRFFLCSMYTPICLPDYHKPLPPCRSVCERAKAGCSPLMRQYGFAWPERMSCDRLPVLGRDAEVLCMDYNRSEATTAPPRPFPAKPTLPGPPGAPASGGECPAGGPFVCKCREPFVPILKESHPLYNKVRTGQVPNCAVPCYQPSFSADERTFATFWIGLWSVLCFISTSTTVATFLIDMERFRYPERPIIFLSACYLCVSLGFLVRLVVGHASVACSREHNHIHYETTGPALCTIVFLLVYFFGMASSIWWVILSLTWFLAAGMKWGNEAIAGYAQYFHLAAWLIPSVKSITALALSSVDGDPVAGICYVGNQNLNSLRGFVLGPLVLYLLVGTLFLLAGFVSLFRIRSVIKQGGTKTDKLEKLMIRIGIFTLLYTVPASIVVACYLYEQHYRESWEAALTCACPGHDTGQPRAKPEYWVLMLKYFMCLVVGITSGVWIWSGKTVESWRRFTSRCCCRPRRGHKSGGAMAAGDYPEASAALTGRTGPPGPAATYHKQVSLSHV

B1: Rspo1-Fc fusion protein (Fc fusion)
chain: SRGIKGKRQRRISAEGSQACAKGCELCSEVNGCLKCSPKLFILLERNDIRQVGVCLPSCPPGYFDARNPDMNKCIKCKIEHCEACFSHNFCTKCKEGLYLHKGRCYPACPEGSSAANGTMECSSPAQCEMSEWSPWGPCSKKQQLCGFRRGSEERTRRVLHAPVGDHAACSDTKETRRCTVRRVPCPEGQKRRKGGQGRRENANRNLARKESKEAGAGSRRRKGQQQQQQQGTVGPLTSAGPA
notes: also called Rspondin1 IgFc fusion protein; not shown: Fc (IgFc) part
B1: no binding (tested: ˜1 µg/ml) [1]; no binding [2]; no binding [3]. B1: no binding (tested: ~1 µg/ml) [4].

B2: antibody 1D9 (antibody, V domains shown)
VH: EVKLQESGAALVKPGASVKLSCKASGYTFTDYYIHWVKQSHGKSLEWIGYINPNSGYTNYNEKFKSKATLTVDKSTNTAYMELSRLTSEDSATYYCTRFGSYWYFDFWGQGTTVTVSS
VL: MTQSPTSMSISIGDRVTMNCKASQNVDSNVDWYQQKTGQSPKLLIYKASNRYTGVPDRFTGSGSGTDFTFTISNMQAEDLAVYYCMQSNSYPLTFGSGTKLEIKR
notes: Rat monoclonal antibody against human Lgr5; hybridoma LMBP 6961CB; also called Ab1; 1D9 A5
B2: no binding [5].
